Measurements: paper PMC8643695 (Nucleic Acids Research, 2021)
Where a chain is given by its changes, count along the chain named. Names may count otherwise. Like-named read-outs stand apart in the source and are kept apart here.

How the values were obtained:
[1] = biological target: C9A SpCstR C9A (Streptococcus pneumoniae D39) (UniProt A0A0H2ZNA4); experiment: fluorescence anisotropy; settings: 10 nM dsDNA, 25 mM Tris-HCl, 200 mM NaCl, 2 mM EDTA, 2 mM TCEP, pH 8.0, 25 C
[2] = tested on: SmCstR (Streptococcus mitis SVGS_061); experiment: fluorescence anisotropy; settings: 10 nM dsDNA, 25 mM Tris-HCl, 200 mM NaCl, 2 mM EDTA, 2 mM TCEP, pH 8.0, 25 C
crystal structure [3] = biological target: the molecule itself; experiment: crystal structure
crystal structure [4] = biological target: the molecule itself; experiment: crystal structure; remark: listed apart in the source
crystal structure [5] = biological target: the molecule itself; experiment: crystal structure; remark: listed apart in the source
C9R SpCstR = C9R SpCstR (Streptococcus pneumoniae D39, UniProt A0A0H2ZNA4 1-85, C9R); experiment: fluorescence anisotropy

## Sp adcA (AdcR) operator
[1]
  Ka: 490000 M⁻¹

## TACCTCCAAATATACCCTTATGGGGTATATTAAA (double strand) [S. mitis cst operator]
[2]
  Ka: 1.4e+08 M⁻¹

B1: selenomethionine (SeMet)-substituted C9A SpCstR (natural protein, Streptococcus pneumoniae D39)
chain: TNSKYITALKRSEGQLRGIQKMIEGDRDCADIVTQLTAVRSSVERVIEMIITENLTECINQPLDDSEAQKERLEKAIRYLIKRK
modifications: selenomethionine in place of methionine
Crystal structure [3]
  stoichiometry N: 4

B2: C9A S. pneumoniae CstR (locus tag SPD_0073) (natural protein, Streptococcus pneumoniae D39)
chain: B1 chain
Crystal structure [4]
  stoichiometry N: 6

B3: C9A/N55A S. pneumoniae CstR (locus tag SPD_0073) (natural protein, Streptococcus pneumoniae D39)
chain: B1 chain with N54A
Crystal structure [5]
  stoichiometry N: 4

B4: S. mitis cst operator (dsDNA)
DNA 1: TACCTCCAAATATACCCTTATGGGGTATATTAAA
DNA 2: TTTAATATACCCCATAAGGGTATATTTGGAGGTA
C9R SpCstR
  binding result: binds
